From US20230322879A1

Biological target: CC-chemokine receptor type 7 (CCR7) (UniProt P32248)
Assay: cell-based or functional assay

UniProt P32248, sequence (P32248 25-378 limits assumed): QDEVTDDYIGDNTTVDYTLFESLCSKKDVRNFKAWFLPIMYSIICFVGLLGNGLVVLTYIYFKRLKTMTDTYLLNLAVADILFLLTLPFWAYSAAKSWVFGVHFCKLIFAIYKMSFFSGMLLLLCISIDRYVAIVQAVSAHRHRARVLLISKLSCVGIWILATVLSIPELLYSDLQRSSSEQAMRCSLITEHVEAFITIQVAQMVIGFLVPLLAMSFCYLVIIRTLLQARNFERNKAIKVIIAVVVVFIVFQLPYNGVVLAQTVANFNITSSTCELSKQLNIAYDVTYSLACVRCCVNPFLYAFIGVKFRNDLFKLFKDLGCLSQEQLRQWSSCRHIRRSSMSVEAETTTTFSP

commercial CCL21 antigen (from UniProt O00585 24-134) (ligand)
Cells in the well of absorbent material (chemotaxis of PBMCs, agarose assay): 170 cells
Chemotaxis percentage (PBMCs, agarose assay): 90%
Chemotaxis rate (PBMCs, agarose assay): 153 cells
cancer cell migration after 72 hours, wound healing assay: 90%
survival of MCF7 cancer cells, MTT assay, 7.5 µg/ml: 33%
